Measurements taken from patent US20220332804A1 (CSL INNOVATION, published 2022).
Substitutions are numbered along the chain they refer to.

Tests used:
Assay in all cases: SPR, KD relative to WT C2;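 note: biacore SPR at 37 °C, anti-C2 mAbs captured via immobilised goat anti-human IgG, C2 alanine or serine surface mutants as analytes, 1:1 model fitted, double-referenced sensograms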
human C2 P718A = biological target: T1, human C2 P718A (human, UniProt P06681 21-752)
T1 sequence: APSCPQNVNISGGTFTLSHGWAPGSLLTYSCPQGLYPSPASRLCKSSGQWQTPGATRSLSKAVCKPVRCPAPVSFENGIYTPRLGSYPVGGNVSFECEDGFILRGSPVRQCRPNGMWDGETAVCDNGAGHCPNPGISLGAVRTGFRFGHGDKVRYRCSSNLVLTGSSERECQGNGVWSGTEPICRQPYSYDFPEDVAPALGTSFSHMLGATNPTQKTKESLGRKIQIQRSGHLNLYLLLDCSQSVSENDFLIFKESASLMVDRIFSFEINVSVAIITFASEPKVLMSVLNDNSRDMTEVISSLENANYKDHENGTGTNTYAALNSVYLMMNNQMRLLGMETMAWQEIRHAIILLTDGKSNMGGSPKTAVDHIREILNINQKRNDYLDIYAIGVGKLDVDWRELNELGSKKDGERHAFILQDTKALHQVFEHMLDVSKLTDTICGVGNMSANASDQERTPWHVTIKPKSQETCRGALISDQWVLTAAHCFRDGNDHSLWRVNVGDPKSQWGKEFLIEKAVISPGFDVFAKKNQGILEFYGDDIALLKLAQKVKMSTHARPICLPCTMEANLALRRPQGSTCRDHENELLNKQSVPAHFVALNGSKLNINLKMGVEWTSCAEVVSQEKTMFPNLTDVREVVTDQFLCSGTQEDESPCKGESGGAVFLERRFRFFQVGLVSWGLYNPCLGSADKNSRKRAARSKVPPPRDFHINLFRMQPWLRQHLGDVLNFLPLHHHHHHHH

human C2 T317A = biological target: T2, human C2 T317A (human, UniProt P06681 21-752)
T2 sequence: T1 sequence with T297A, A698P

human C2 K430A = biological target: T3, human C2 K430A (human, UniProt P06681 21-752)
T3 sequence: T1 sequence with K410A, A698P

human C2 K487A = biological target: T4, human C2 K487A (human, UniProt P06681 21-752)
T4 sequence: T1 sequence with K467A, A698P

B1: RF16-226 (antibody, human IgG4 S228P, lambda)
heavy: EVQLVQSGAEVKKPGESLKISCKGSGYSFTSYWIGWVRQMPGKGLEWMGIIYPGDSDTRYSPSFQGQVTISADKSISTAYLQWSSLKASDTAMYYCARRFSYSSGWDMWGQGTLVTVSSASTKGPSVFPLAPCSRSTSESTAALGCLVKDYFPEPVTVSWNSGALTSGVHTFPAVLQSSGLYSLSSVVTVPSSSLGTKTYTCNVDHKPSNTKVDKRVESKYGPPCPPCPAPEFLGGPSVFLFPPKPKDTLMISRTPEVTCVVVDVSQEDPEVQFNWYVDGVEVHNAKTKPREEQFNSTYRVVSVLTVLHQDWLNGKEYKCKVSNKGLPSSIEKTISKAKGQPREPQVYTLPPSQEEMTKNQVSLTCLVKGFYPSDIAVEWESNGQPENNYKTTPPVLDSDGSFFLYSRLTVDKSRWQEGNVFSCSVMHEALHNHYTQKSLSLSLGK
light: SYELTQPPSVSVSPGQTARITCSGDALTSKYVAWYQQKSGLAPLLVIYEDTRRPSGIPAKFSGSSSGSVATLTISGAHGDDEADYYCYSTDASGHQRVFGGGTKLTVLSQPKAAPSVTLFPPSSEELQANKATLVCLISDFYPGAVTVAWKADGSPVKAGVETTKPSKQSNNKYAASSYLSLTPEQWKSHRSYSCQVTHEGSTVEKTVAPTECS
notes: pH-dependent anti-C2 antibody from a phage display library; also called WT
B1 showed a Fold diff (human C2 P718A) of 2 fold, a Fold diff (human C2 T317A) of 1 fold and a Fold diff (human C2 K430A) of 6 fold. The Fold diff (human C2 K487A) was 9 fold.
